Test results published in article PMC4159076 (Cell reports, 2013).

Tests used:
[1] = molecular target: endogenous NPM (human cells) (human (endogenous in HEK293)) (UniProt P06748); assay: denaturing gel electrophoresis with western blot
[2] = molecular target: NPM (Flag-NPM / GST-NPM constructs) (UniProt P06748); assay: GST pull-down, anti-Flag western blot; details: reference: Flag-NPM wild type; sites S125
[3] = molecular target: the molecule itself; assay: denaturing gel electrophoresis with western blot

endogenous NPM (human cells) (from UniProt P06748 1-294) (natural protein)
stoichiometry N [1]: 6

NPM (Flag-NPM / GST-NPM constructs) (from UniProt P06748) Flag-NPM S125A
binding against the reference [2]: weaker

B1: nucleophosmin (NPM) (endogenous, mouse cells) (natural protein, UniProt Q61937 1-292, looked up)
chain: MEDSMDMDMSPLRPQNYLFGCELKADKDYHFKVDNDENEHQLSLRTVSLGAGAKDELHIVEAEAMNYEGSPIKVTLATLKMSVQPTVSLGGFEITPPVVLRLKCGSGPVHISGQHLVAVEEDAESEDEDEEDVKLLGMSGKRSAPGGGNKVPQKKVKLDEDDEDDDEDDEDDEDDDDDDFDEEETEEKVPVKKSVRDTPAKNAQKSNQNGKDLKPSTPRSKGQESFKKQEKTPKTPKGPSSVEDIKAKMQASIEKGGSLPKVEAKFINYVKNCFRMTDQEAIQDLWQWRKSL
stoichiometry N [3]: 6
